Measured values published in US20060257938A1, “Method of screening for drugs that block ligand binding to a lipid binding protein” (priority 2005, published 2006).
“And” between values parts separate entries of the source, which are not always exact repeats. Equal entries are not always repeated.

Tests used:
Format in all cases: binding
Conditions in all cases: response relative to ADIFAB2
[1] = Probe fluorescence ratio response to arachidonic acid relative to ADIFAB2
Summary of the method: (§1)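 Fluorescently labeled rat intestinal FABP variants were read at two emission wavelengths, near the unbound maximum (about 420 to 480 nm) and the FFA-bound maximum (about 495 to 580 nm). R = Fλ1/Fλ2 after subtracting probe-free intensity; ΔR = R+agent − R0, normalized to ADIFAB2 (rI-FABP-L72A).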

[2] = Probe fluorescence ratio response to linolenic acid relative to ADIFAB2
Summary of the method: as §1

[3] = Probe fluorescence ratio response to linoleic acid relative to ADIFAB2
Summary of the method: as §1

[4] = Probe fluorescence ratio response to oleic acid relative to ADIFAB2
Summary of the method: as §1

[5] = Probe fluorescence ratio response to palmitic acid relative to ADIFAB2
Summary of the method: as §1

Molecule | DR/DR AA ([1]; Arachidonic acid) | DR/DR LNA [2] | DR/DR LA [3] | DR/DR OA [4] | DR/DR PA [5] | DR/DR AA ([1]; arachidonic acid)
60H, 72A (protein, listed as Rattus norvegicus, PEPTIDE (1)...(131) wild-type rat intestinal fatty acid binding protein) AFDGTWKVDRNENYEKFMEKMGINVVKRKLGAHDNLKLTITQEGNKFTVKESSNFRNIDHVFELGVDFAYSAADGTELTGTWTMEGNKLVGKFKRVDNGKELIAVREISGNELIQTYTYEGVEAKRIFKKE | 0.17 | 0.18 | 0.17 | 0.17 | 0.12 | –
62D, 72A (protein, listed as Rattus norvegicus, PEPTIDE (1)...(131) wild-type rat intestinal fatty acid binding protein) AFDGTWKVDRNENYEKFMEKMGINVVKRKLGAHDNLKLTITQEGNKFTVKESSNFRNIDVVDELGVDFAYSAADGTELTGTWTMEGNKLVGKFKRVDNGKELIAVREISGNELIQTYTYEGVEAKRIFKKE | 1.49 | 1.58 and 1.576 | 1.60 and 1.598 | 1.57 and 1.574 | 1.39 and 1.385 | 1.485
62G, 72A (protein, listed as Rattus norvegicus, PEPTIDE (1)...(131) wild-type rat intestinal fatty acid binding protein) AFDGTWKVDRNENYEKFMEKMGINVVKRKLGAHDNLKLTITQEGNKFTVKESSNFRNIDVVGELGVDFAYSAADGTELTGTWTMEGNKLVGKFKRVDNGKELIAVREISGNELIQTYTYEGVEAKRIFKKE | 1.43 | 1.44 | 1.44 | 1.46 | 1.26 | –
62E, 72A (protein, listed as Rattus norvegicus, PEPTIDE (1)...(131) wild-type rat intestinal fatty acid binding protein) AFDGTWKVDRNENYEKFMEKMGINVVKRKLGAHDNLKLTITQEGNKFTVKESSNFRNIDVVEELGVDFAYSAADGTELTGTWTMEGNKLVGKFKRVDNGKELIAVREISGNELIQTYTYEGVEAKRIFKKE | 1.48 | 1.52 | 1.49 | 1.52 | 1.40 | –
60R, 72A (protein, listed as Rattus norvegicus, PEPTIDE (1)...(131) wild-type rat intestinal fatty acid binding protein) AFDGTWKVDRNENYEKFMEKMGINVVKRKLGAHDNLKLTITQEGNKFTVKESSNFRNIDRVFELGVDFAYSAADGTELTGTWTMEGNKLVGKFKRVDNGKELIAVREISGNELIQTYTYEGVEAKRIFKKE | 0.14 | 0.14 | 0.12 | 0.13 | 0.08 | –
60L, 72A (protein, listed as Rattus norvegicus, PEPTIDE (1)...(131) wild-type rat intestinal fatty acid binding protein) AFDGTWKVDRNENYEKFMEKMGINVVKRKLGAHDNLKLTITQEGNKFTVKESSNFRNIDLVFELGVDFAYSAADGTELTGTWTMEGNKLVGKFKRVDNGKELIAVREISGNELIQTYTYEGVEAKRIFKKE | 1.08 | 1.26 | 1.29 and 1.285 | 1.27 and 1.272 | 1.10 and 1.095 | 1.075
60S, 72A (protein, listed as Rattus norvegicus, PEPTIDE (1)...(131) wild-type rat intestinal fatty acid binding protein) AFDGTWKVDRNENYEKFMEKMGINVVKRKLGAHDNLKLTITQEGNKFTVKESSNFRNIDSVFELGVDFAYSAADGTELTGTWTMEGNKLVGKFKRVDNGKELIAVREISGNELIQTYTYEGVEAKRIFKKE | 0.56 | 0.71 | 0.72 | 0.67 | 0.59 | –
60N, 72A (protein, listed as Rattus norvegicus, PEPTIDE (1)...(131) wild-type rat intestinal fatty acid binding protein) AFDGTWKVDRNENYEKFMEKMGINVVKRKLGAHDNLKLTITQEGNKFTVKESSNFRNIDNVFELGVDFAYSAADGTELTGTWTMEGNKLVGKFKRVDNGKELIAVREISGNELIQTYTYEGVEAKRIFKKE | 1.24 | 1.59 | 1.57 | 1.54 | 1.30 | –
60W, 72A (protein, listed as Rattus norvegicus, PEPTIDE (1)...(131) wild-type rat intestinal fatty acid binding protein) AFDGTWKVDRNENYEKFMEKMGINVVKRKLGAHDNLKLTITQEGNKFTVKESSNFRNIDWVFELGVDFAYSAADGTELTGTWTMEGNKLVGKFKRVDNGKELIAVREISGNELIQTYTYEGVEAKRIFKKE | 0.67 | 0.74 and 0.739 | 0.84 and 0.837 | 0.76 and 0.763 | 0.59 and 0.595 | 0.670
60Q, 72A (protein, listed as Rattus norvegicus, PEPTIDE (1)...(131) wild-type rat intestinal fatty acid binding protein) AFDGTWKVDRNENYEKFMEKMGINVVKRKLGAHDNLKLTITQEGNKFTVKESSNFRNIDQVFELGVDFAYSAADGTELTGTWTMEGNKLVGKFKRVDNGKELIAVREISGNELIQTYTYEGVEAKRIFKKE | 0.36 | 0.42 | 0.41 | 0.41 | 0.35 | –
60P, 72A (protein, listed as Rattus norvegicus, PEPTIDE (1)...(131) wild-type rat intestinal fatty acid binding protein) AFDGTWKVDRNENYEKFMEKMGINVVKRKLGAHDNLKLTITQEGNKFTVKESSNFRNIDPVFELGVDFAYSAADGTELTGTWTMEGNKLVGKFKRVDNGKELIAVREISGNELIQTYTYEGVEAKRIFKKE | 0.62 | 0.77 | 0.81 | 0.81 | 0.37 | –
62C, 72A (protein, listed as Rattus norvegicus, PEPTIDE (1)...(131) wild-type rat intestinal fatty acid binding protein) AFDGTWKVDRNENYEKFMEKMGINVVKRKLGAHDNLKLTITQEGNKFTVKESSNFRNIDVVCELGVDFAYSAADGTELTGTWTMEGNKLVGKFKRVDNGKELIAVREISGNELIQTYTYEGVEAKRIFKKE | 1.30 | 1.31 | 1.31 | 1.29 | 1.18 | –
60K, 72A (protein, listed as Rattus norvegicus, PEPTIDE (1)...(131) wild-type rat intestinal fatty acid binding protein) AFDGTWKVDRNENYEKFMEKMGINVVKRKLGAHDNLKLTITQEGNKFTVKESSNFRNIDKVFELGVDFAYSAADGTELTGTWTMEGNKLVGKFKRVDNGKELIAVREISGNELIQTYTYEGVEAKRIFKKE | 0.46 | 0.57 and 0.582 | 0.62 and 0.619 | 0.60 and 0.626 | 0.35 and 0.310 | 0.461
62A, 72A (protein, listed as Rattus norvegicus, PEPTIDE (1)...(131) wild-type rat intestinal fatty acid binding protein) AFDGTWKVDRNENYEKFMEKMGINVVKRKLGAHDNLKLTITQEGNKFTVKESSNFRNIDVVAELGVDFAYSAADGTELTGTWTMEGNKLVGKFKRVDNGKELIAVREISGNELIQTYTYEGVEAKRIFKKE | 1.08 | 1.08 | 0.96 | 0.86 | 0.57 | –
60I, 72A (protein, listed as Rattus norvegicus, PEPTIDE (1)...(131) wild-type rat intestinal fatty acid binding protein) AFDGTWKVDRNENYEKFMEKMGINVVKRKLGAHDNLKLTITQEGNKFTVKESSNFRNIDIVFELGVDFAYSAADGTELTGTWTMEGNKLVGKFKRVDNGKELIAVREISGNELIQTYTYEGVEAKRIFKKE | 1.54 | 1.63 and 1.632 | 1.73 | 1.72 and 1.723 | 1.52 | 1.539
60T, 72A (protein, listed as Rattus norvegicus, PEPTIDE (1)...(131) wild-type rat intestinal fatty acid binding protein) AFDGTWKVDRNENYEKFMEKMGINVVKRKLGAHDNLKLTITQEGNKFTVKESSNFRNIDTVFELGVDFAYSAADGTELTGTWTMEGNKLVGKFKRVDNGKELIAVREISGNELIQTYTYEGVEAKRIFKKE | 1.72 | 1.73 | 1.73 | 1.76 | 1.49 | –
60M, 72A (protein, listed as Rattus norvegicus, PEPTIDE (1)...(131) wild-type rat intestinal fatty acid binding protein) AFDGTWKVDRNENYEKFMEKMGINVVKRKLGAHDNLKLTITQEGNKFTVKESSNFRNIDMVFELGVDFAYSAADGTELTGTWTMEGNKLVGKFKRVDNGKELIAVREISGNELIQTYTYEGVEAKRIFKKE | 0.77 | 0.93 | 1.01 | 0.91 | 0.76 | –
